Among the data in PMC8252264, “Candida albicans and Candida glabrata triosephosphate isomerase – a moonlighting protein that can be exposed on the candidal cell surface and bind to human extracellular matrix proteins” (BMC Microbiology, 2021) are Kd, koff and kon values, retold here.

The target in experiment [1] is Candida albicans triosephosphate isomerase (Tpi1) (Candida albicans (strain ATCC 10231)) (UniProt Q9P940). In words: SPR; Biacore 3000, Tpi1 amine-coupled to a CM5 chip (ca. 150 RU), human ECM proteins 50-750 nM injected; 10 mM HEPES, 150 mM NaCl, 0.005 % P20, pH 7.4; 1:1 Langmuir model, global or local fit. A general note: In SPR one partner is held on a chip, and binding of the other changes the refractive index at the surface.

In experiment [2] the target is Candida glabrata triosephosphate isomerase (Tpi1) (Candida glabrata (strain CBS138, ATCC 2001)) (UniProt Q6FRI3). The description is as above.
Experiment [3] has as its target T1, human vitronectin (human, UniProt P04004 20-478, biotin (NHS-biotin) in the whole-cell assay only; sulfo-SDAD on amino groups in the cross-linking experiment).
T1 construct: vitronectin, human; UniProt ID printed for the modelling only (there: vitronectin V65 subunit); No catalogue number printed; also called VTR; source: bought: R&D Systems
The experiment can be described thus: ELISA; microplate-based protein-binding assay: human ECM proteins coated (3 pmoles per well, MaxiSorp, overnight 4 °C), biotin-labelled Tpi1 10-800 nM in PBS, 1.5 h at 37 °C, SA-HRP/TMB detection; apparent KD. The conditions noted are these: both partners purified.

For the next experiment, the target named is T2, human elastin (human, UniProt P15502 27-786).
T2 construct: elastin, human; No catalogue number printed; a commercial soluble elastin may be a cross-linked or hydrolysed tissue preparation; source: bought: Sigma-Aldrich
T2 sequence (looked up): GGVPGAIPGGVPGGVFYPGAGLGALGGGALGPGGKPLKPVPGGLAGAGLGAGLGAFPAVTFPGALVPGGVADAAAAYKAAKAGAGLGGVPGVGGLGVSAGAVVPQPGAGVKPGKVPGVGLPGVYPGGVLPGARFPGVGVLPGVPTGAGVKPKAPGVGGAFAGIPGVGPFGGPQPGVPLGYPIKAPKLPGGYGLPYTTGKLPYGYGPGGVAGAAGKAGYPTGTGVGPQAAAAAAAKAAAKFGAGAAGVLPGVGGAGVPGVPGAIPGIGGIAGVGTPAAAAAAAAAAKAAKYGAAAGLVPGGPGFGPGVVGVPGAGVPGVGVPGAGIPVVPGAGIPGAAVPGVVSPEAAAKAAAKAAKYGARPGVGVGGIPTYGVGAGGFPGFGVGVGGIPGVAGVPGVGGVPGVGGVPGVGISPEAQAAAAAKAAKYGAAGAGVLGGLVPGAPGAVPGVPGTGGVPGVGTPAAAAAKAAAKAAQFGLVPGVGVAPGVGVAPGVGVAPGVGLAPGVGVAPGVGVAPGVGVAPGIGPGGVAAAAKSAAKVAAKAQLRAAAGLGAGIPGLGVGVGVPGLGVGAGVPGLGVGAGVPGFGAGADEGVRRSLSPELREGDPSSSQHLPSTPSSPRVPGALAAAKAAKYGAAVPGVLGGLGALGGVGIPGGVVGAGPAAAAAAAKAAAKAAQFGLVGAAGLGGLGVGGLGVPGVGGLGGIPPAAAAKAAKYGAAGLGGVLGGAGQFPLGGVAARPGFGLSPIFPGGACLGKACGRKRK
The experiment can be described thus: SPR; Biacore 3000, Tpi1 amine-coupled to a CM5 chip (ca. 150 RU), human ECM proteins 50-750 nM injected; 10 mM HEPES, 150 mM NaCl, 0.005 % P20, pH 7.4; 1:1 Langmuir model, global or local fit. The note with it: both partners purified.

Experiment [4] deals with T1, human vitronectin. Described as above. The conditions noted are these: both partners purified.
In a further experiment the target is human collagen (human). In words: ELISA; microplate-based protein-binding assay: human ECM proteins coated (3 pmoles per well, MaxiSorp, overnight 4 °C), biotin-labelled Tpi1 10-800 nM in PBS, 1.5 h at 37 °C, SA-HRP/TMB detection; apparent KD.
Experiment [5] has as its target human ECM proteins tested in the microplate-based protein-binding assay (Fig. 5). The description is as above.

T1 sequence (P04004 20-478): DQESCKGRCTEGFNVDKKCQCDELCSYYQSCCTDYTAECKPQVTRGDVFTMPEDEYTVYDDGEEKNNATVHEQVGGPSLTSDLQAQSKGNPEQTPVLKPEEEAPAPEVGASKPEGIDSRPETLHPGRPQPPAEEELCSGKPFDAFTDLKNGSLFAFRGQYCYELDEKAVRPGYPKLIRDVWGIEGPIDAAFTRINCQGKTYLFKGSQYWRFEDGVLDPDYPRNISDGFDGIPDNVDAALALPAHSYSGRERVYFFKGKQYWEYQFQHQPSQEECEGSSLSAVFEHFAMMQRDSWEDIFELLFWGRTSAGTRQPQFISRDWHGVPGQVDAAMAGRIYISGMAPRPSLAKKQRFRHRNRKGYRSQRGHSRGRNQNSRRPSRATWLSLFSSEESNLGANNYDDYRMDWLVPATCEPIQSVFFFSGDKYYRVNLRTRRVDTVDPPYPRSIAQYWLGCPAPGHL

One may read the koff as a measure of how fast the partners let go of each other. High values mean a short-lived complex, low ones a long-lived complex. As a reminder, the kon is a measure of how fast the partners come together. Higher therefore signals fast association. With human collagen (natural protein), in experiment [1], the Kd turned out to be 109 nM, the koff is 0.00199 s⁻¹ and the kon was 18200 M⁻¹ s⁻¹. In addition, in experiment [2], the Kd came out at 214 nM, the koff stood at 0.00308 s⁻¹ and the kon amounted to 14400 M⁻¹ s⁻¹.
With human laminin (complex), in experiment [1], the Kd was 739 nM, the koff was 0.0327 s⁻¹ and the kon was 44200 M⁻¹ s⁻¹. In experiment [2], this molecule yielded a Kd of 253 nM, a koff of 0.00339 s⁻¹ and a kon of 13400 M⁻¹ s⁻¹.
In experiment [1], “human fibronectin (from UniProt P02751 32-2477) (natural protein)” registered a Kd of 326 nM, a koff of 0.0105 s⁻¹ and a kon of 32200 M⁻¹ s⁻¹. Besides, in experiment [2], the Kd was found to be 730 nM, the dissociation rate constant (koff) amounted to 0.0473 s⁻¹ and the kon came to 64800 M⁻¹ s⁻¹.

B1: Candida albicans triosephosphate isomerase (Tpi1) (enzyme)
chain: MARQFFVGGNFKANGTKQQITSIIDNLNKADLPKDVEVVICPPALYLGLAVEQNKQPTVAIGAQNVFDKSCGAFTGETCASQILDVGASWTLTGHSERRTIIKESDEFIAEKTKFALDTGVKVILCIGETLEERKGGVTLDVCARQLDAVSKIVSDWSNIVVAYEPVWAIGTGLAATPEDAEETHKGIRAHLAKSIGAEQAEKTRILYGGSVNGKNAKDFKDKANVDGFLVGGASLKPEFVDIIKSRL
modifications: biotin (NHS-biotin) in the microplate assays; unlabelled in SPR, cross-linking and on cells
notes: triosephosphate isomerase Tpi1 of Candida albicans, native protein isolated from the cell wall; the UniProt ID is printed for the molecular modelling; Native protein, enzymatically active, no attached sugars found; The strain used (ATCC 10231) may differ from the strain of the UniProt entry; Modelled as a dimer, oligomeric state not measured here; also called C. albicans Tpi1; source: also …
Regarding B1, the Kd with human vitronectin [3] was approximately 10 nM. In the experiment with human elastin, this molecule gave a Kd of 821 nM, a koff of 0.0382 s⁻¹ and a kon of 46500 M⁻¹ s⁻¹. In addition, in the experiment with human vitronectin [4], the Kd worked out at 86 nM, the koff came out at 0.00877 s⁻¹ and the kon worked out at 102000 M⁻¹ s⁻¹.

B2: Candida glabrata triosephosphate isomerase (Tpi1) (enzyme)
chain: MARTFFVGGNFKLNGTKKSIKEIVDRLNTASLPENVEVVICPPATYLDYTVSLVSKKQVTVGGQNTYTKASGAYTGENSVDQLKDVGAKWVILGHSERRTYFHEDDKIVAEKTKFALDQGLGVILCIGETLEEKKAGVTLKVVERQLDAVIAEVKDWTNVVIAYEPVWAIGTGLAATAEDAQDIHHSIRSYLAEKLGKDTAEKTRILYGGSANGANAGTFKDKADVDGFLVGGASLKPEFVDIINSRN
modifications: biotin (NHS-biotin) in the microplate assay; unlabelled in SPR and on cells
notes: triosephosphate isomerase Tpi1 of Candida glabrata, native protein isolated from the cell wall; identifier not given; Native protein, enzymatically active, no attached sugars found; also called C. glabrata Tpi1; source: also endogenous, on live C. glabrata cells
As for B2, the Kd amounted to 20.1 nM with human elastin, 168 nM with human vitronectin [4], 1000 nM in the experiment with human collagen (human) and 100 nM in experiment [5]. Besides, the koff amounted to 0.00191 s⁻¹ in the experiment with human elastin and 0.0031 s⁻¹ with human vitronectin [4]. The kon came out at 95100 M⁻¹ s⁻¹ with human elastin and 18400 M⁻¹ s⁻¹ with human vitronectin [4].
